Results as given in patent US20150344570A1 (published 2015).

Experiments:
FcγRIIa R [1] = target: T1, FcγRIIa R (human, UniProt P12318 34-217); experiment: ratio of He/Con_2aR to He/Con_2b (binding to FcγRIIb as reference); SPR
T1 construct: extracellular domain; Soluble His-tagged extracellular domain expressed in FreeStyle293 cells; analyte in Biacore; also called FcgRIIa R; FcgRIIaR; not shown: His tag attached to the C terminus
T1 sequence (looked up): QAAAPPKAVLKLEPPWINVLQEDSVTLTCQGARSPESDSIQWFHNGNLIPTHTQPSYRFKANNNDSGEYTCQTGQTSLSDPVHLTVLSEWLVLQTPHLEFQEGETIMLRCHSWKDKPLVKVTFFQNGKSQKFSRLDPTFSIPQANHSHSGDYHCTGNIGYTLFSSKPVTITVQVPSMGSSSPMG

FcγRIIb = target: T2, FcγRIIb (human, UniProt P31994 43-217); experiment: SPR (Biacore), antibody captured via antigen peptide, FcγR as analyte
T2 construct: extracellular domain; Soluble His-tagged extracellular domain expressed in FreeStyle293 cells; analyte in Biacore; also called FcgRIIb; 2b; not shown: His tag attached to the C terminus
T2 sequence (looked up): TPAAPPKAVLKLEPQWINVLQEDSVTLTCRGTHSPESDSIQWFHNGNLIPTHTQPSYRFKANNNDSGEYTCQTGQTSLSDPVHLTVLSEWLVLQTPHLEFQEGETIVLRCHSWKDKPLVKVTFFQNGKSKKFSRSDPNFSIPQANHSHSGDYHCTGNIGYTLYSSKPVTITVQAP
Experimental: (§1) The heterodimerized antibodies He Abs in which one of the H chains was introduced with an alteration were assayed for their binding activities to each activating FcγR and inhibitory FcγR according to the method described in Example 4. […] The activating FcγRs in FIGS. 26, 27, 28, and 29 are FcγRIa, FcγRIIa (R), FcγRIIa (H), and FcγRIIIa, respectively.
(§2) Analysis of interaction between objective antibody and the FcγR was carried out using Biacore T100 (GE Healthcare). HBS-EP+ (GE Healthcare) was used as the running buffer, and the measurement temperature was set to 25° C. Chips produced by immobilizing the antigen peptide by the amine coupling method to a Series S Sencor Chip CM5 (GE Healthcare), or alternatively, chips produced by allowing preliminarily biotinylated antigen peptides to interact with and immobilize onto a Series S Sensor Chip SA (certified) (GE Healthcare) were used. Antibodies of interest were captured onto an antigen peptide-immobilized chip, and allowed to interact to each FcγR diluted with running buffer. To regenerate and repeatedly use the chip, the antibodies captured on the chip were washed off by reacting 10 mM glycine-HCl, pH 1.5.

FcγRIIa R [2] = target: T1, FcγRIIa R; experiment: as above
Experimental: as §1, §2

Row | Binder | He_2aR/2b (IIaR/IIb) (FcγRIIa R [1]) | He/Con_2b (IIb binding relative to GpH7-A5/GpH7-B3/GpL16-k0) (FcγRIIb) | He/Con_2aR (IIaR binding relative to GpH7-A5/GpH7-B3/GpL16-k0) (FcγRIIa R [2])
1 | GpH7-A5/GpH7-B3 variant S298_11K/GpL16-k0 (antibody, human IgG1, kappa, Heterodimerized anti-glypican-3 IgG1 antibody; alteration only in the GpH7-B3 H chain; position in EU numbering; also called He Ab) heavy 1: not shown heavy 2: not shown light: DIVMTQSPLSLPVTPGEPASISCQASESLVHSNRNTYLHWYLQKPGQSPQLLIYKVSNRFSGVPDRFSGSGSGTDFTLKISRVEAEDVGVYYCSQNTHVPPTFGQGTKVEIERTVAAPSVFIFPPSDEQLKSGTASVVCLLNNFYPREAKVQWKVDNALQSGNSQESVTEQDSKDSTYSLSSTLTLSKADYEKHKVYACEVTHQGLSSPVTKSFNRGEC | 1.55 | 61.3 % of control (control = 100) | 95.1 % of control (control = 100)
2 | GpH7-A5/GpH7-B3 variant S298_12R/GpL16-k0 (antibody, human IgG1, kappa, Heterodimerized anti-glypican-3 IgG1 antibody; alteration only in the GpH7-B3 H chain; position in EU numbering; also called He Ab) heavy 1: not shown heavy 2: not shown light: DIVMTQSPLSLPVTPGEPASISCQASESLVHSNRNTYLHWYLQKPGQSPQLLIYKVSNRFSGVPDRFSGSGSGTDFTLKISRVEAEDVGVYYCSQNTHVPPTFGQGTKVEIERTVAAPSVFIFPPSDEQLKSGTASVVCLLNNFYPREAKVQWKVDNALQSGNSQESVTEQDSKDSTYSLSSTLTLSKADYEKHKVYACEVTHQGLSSPVTKSFNRGEC | 1.48 | 57.8 % of control (control = 100) | 85.3 % of control (control = 100)
3 | GpH7-A5/GpH7-B3 variant S298_14T/GpL16-k0 (antibody, human IgG1, kappa, Heterodimerized anti-glypican-3 IgG1 antibody; alteration only in the GpH7-B3 H chain; position in EU numbering; also called He Ab) heavy 1: not shown heavy 2: not shown light: DIVMTQSPLSLPVTPGEPASISCQASESLVHSNRNTYLHWYLQKPGQSPQLLIYKVSNRFSGVPDRFSGSGSGTDFTLKISRVEAEDVGVYYCSQNTHVPPTFGQGTKVEIERTVAAPSVFIFPPSDEQLKSGTASVVCLLNNFYPREAKVQWKVDNALQSGNSQESVTEQDSKDSTYSLSSTLTLSKADYEKHKVYACEVTHQGLSSPVTKSFNRGEC | 1.26 | 77.9 % of control (control = 100) | 98.5 % of control (control = 100)
4 | GpH7-A5/GpH7-B3 variant S298_15Y/GpL16-k0 (antibody, human IgG1, kappa, Heterodimerized anti-glypican-3 IgG1 antibody; alteration only in the GpH7-B3 H chain; position in EU numbering; also called He Ab) heavy 1: not shown heavy 2: not shown light: DIVMTQSPLSLPVTPGEPASISCQASESLVHSNRNTYLHWYLQKPGQSPQLLIYKVSNRFSGVPDRFSGSGSGTDFTLKISRVEAEDVGVYYCSQNTHVPPTFGQGTKVEIERTVAAPSVFIFPPSDEQLKSGTASVVCLLNNFYPREAKVQWKVDNALQSGNSQESVTEQDSKDSTYSLSSTLTLSKADYEKHKVYACEVTHQGLSSPVTKSFNRGEC | 1.29 | 61.4 % of control (control = 100) | 79.1 % of control (control = 100)
5 | GpH7-A5/GpH7-B3 variant S298_16H/GpL16-k0 (antibody, human IgG1, kappa, Heterodimerized anti-glypican-3 IgG1 antibody; alteration only in the GpH7-B3 H chain; position in EU numbering; also called He Ab) heavy 1: not shown heavy 2: not shown light: DIVMTQSPLSLPVTPGEPASISCQASESLVHSNRNTYLHWYLQKPGQSPQLLIYKVSNRFSGVPDRFSGSGSGTDFTLKISRVEAEDVGVYYCSQNTHVPPTFGQGTKVEIERTVAAPSVFIFPPSDEQLKSGTASVVCLLNNFYPREAKVQWKVDNALQSGNSQESVTEQDSKDSTYSLSSTLTLSKADYEKHKVYACEVTHQGLSSPVTKSFNRGEC | 1.39 | 63.5 % of control (control = 100) | 88.5 % of control (control = 100)
6 | GpH7-A5/GpH7-B3 variant S298_18N/GpL16-k0 (antibody, human IgG1, kappa, Heterodimerized anti-glypican-3 IgG1 antibody; alteration only in the GpH7-B3 H chain; position in EU numbering; also called He Ab) heavy 1: not shown heavy 2: not shown light: DIVMTQSPLSLPVTPGEPASISCQASESLVHSNRNTYLHWYLQKPGQSPQLLIYKVSNRFSGVPDRFSGSGSGTDFTLKISRVEAEDVGVYYCSQNTHVPPTFGQGTKVEIERTVAAPSVFIFPPSDEQLKSGTASVVCLLNNFYPREAKVQWKVDNALQSGNSQESVTEQDSKDSTYSLSSTLTLSKADYEKHKVYACEVTHQGLSSPVTKSFNRGEC | 1.41 | 48.1 % of control (control = 100) | 68 % of control (control = 100)
7 | GpH7-A5/GpH7-B3 variant S298_19Q/GpL16-k0 (antibody, human IgG1, kappa, Heterodimerized anti-glypican-3 IgG1 antibody; alteration only in the GpH7-B3 H chain; position in EU numbering; also called He Ab) heavy 1: not shown heavy 2: not shown light: DIVMTQSPLSLPVTPGEPASISCQASESLVHSNRNTYLHWYLQKPGQSPQLLIYKVSNRFSGVPDRFSGSGSGTDFTLKISRVEAEDVGVYYCSQNTHVPPTFGQGTKVEIERTVAAPSVFIFPPSDEQLKSGTASVVCLLNNFYPREAKVQWKVDNALQSGNSQESVTEQDSKDSTYSLSSTLTLSKADYEKHKVYACEVTHQGLSSPVTKSFNRGEC | 1.3 | 73.3 % of control (control = 100) | 95 % of control (control = 100)
8 | GpH7-A5/GpH7-B3 variant S298_20W/GpL16-k0 (antibody, human IgG1, kappa, Heterodimerized anti-glypican-3 IgG1 antibody; alteration only in the GpH7-B3 H chain; position in EU numbering; also called He Ab) heavy 1: not shown heavy 2: not shown light: DIVMTQSPLSLPVTPGEPASISCQASESLVHSNRNTYLHWYLQKPGQSPQLLIYKVSNRFSGVPDRFSGSGSGTDFTLKISRVEAEDVGVYYCSQNTHVPPTFGQGTKVEIERTVAAPSVFIFPPSDEQLKSGTASVVCLLNNFYPREAKVQWKVDNALQSGNSQESVTEQDSKDSTYSLSSTLTLSKADYEKHKVYACEVTHQGLSSPVTKSFNRGEC | 1.35 | 41.1 % of control (control = 100) | 55.4 % of control (control = 100)
